# Laboratory results from patent US8466258B2, “Polypeptides, cyclic polypeptides and pharmaceutical comprising thereof for non invasive specific imaging of fibrosis” (INSERM (Institut National de la Santé et de la Recherche …, priority 2008, dated 2013).
# Bridge positions count the residues as written; N and C are the ends. Peptide text beside a SMILES is read from it. * marks the point of attachment. Biotin = O=C1N[C@H]2[C@H](CS[C@H]2CCCCC(=O)*)N1
# B1: recombinant soluble GPVI: soluble recombinant GPVI-Fc fusion protein (protein)
# chain: QSGPLPKPSLQALPSSLVPLEKPVTLRCQGPPGVDLYRLEKLSSSRYQDQAVLFIPAMKRSLAGRYRCSYQNGSLWSLPSDQLELVATGVFAKPSLSAQPGPAVSSGGDVTLQCQTRYGFDQFALYKEGDPAPYKNPERWYRASFPIITVTAAHSGTYRCYSFSSRDPYLWSAPSDPLELVVTGTSVTPSRLPTEPPSPVAEFSEATAELTVSFTNEVFTTETSRSITASPKESDSPAGPARQYYTKGN
# modifications: left off: a dimerising Fc or GST
# notes: soluble recombinant GPVI-Fc fusion protein
# What was measured:
# laminin = laminin (Mus musculus, UniProt P02468+P02469+P19137); assay: SPR: laminin binding to collagelin
# [1] = tested on: type I equine fibrillar collagen (Horm); assay: Solid phase assay on collagen-coated microtitration plates; type: binding; conditions: competitor mixed with collagelin, 50 and 20 μg/mL (3J24.2: 50 μg/mL)
# 9O12.2 IgG = assay: SPR: 9O12.2 IgG injected over immobilized biotin-collagelin; type: binding; conditions: 9O12.2 IgG 5 μg/ml, competitor 25 μg/ml
# Protocol: A Biacore 2000 instrument (GE Healthcare Europe GmbH, Orsay, France) (Université Paris 7, Institut Jacques Monod, Paris, France) was used to characterize the binding properties of the synthesized peptides. Biotinylated peptides (˜20 RU) were covalently coupled to the surface of a SA-sensorchip.
# Glycine-HCl (10 mM pH 2.5) was injected for 30 s at 20 μL·min-1 to regenerate the sensorchip between each sample. Sensorgrams were analyzed with the BIA evaluation version 3.1 software. Kinetic constants (kon, koff) were deduced from the analysis of association and dissociation rates at four different IgG concentrations ranging from 1.25 to 10 μg·mL^−1. The dissociation constant KD was calculated from KD=koff/kon. […] In some experiments, the peptide was reduced by DTT on the sensor chip before injection of the IgG. Competition experiments were performed by mixing the IgG with recombinant soluble GPVI (25 μg·mL^−1). Collagen binding to the peptide was analysed by injecting type I equine collagen (Collagen Horm, Nycomed. Germany) (200 μg·mL^−1 in EBS-EP buffer) onto the peptide-coated sensorchip.
Molecule,Kd (laminin) [µM],inhibition of biotin-collagelin binding to collagen by competitor [1],inhibition of 9O12.2 IgG binding to immobilized biotin-collagelin by competitor (9O12.2 IgG)
CSCC[C@@H]1NC(=O)[C@H](C(C)C)NC(=O)[C@H](CCCNC(=N)N)NC(=O)[C@@H]2CCCN2C(=O)CNC(=O)[C@@H](NC(=O)CNC(=O)[C@H](CO)NC(=O)CNC(=O)[C@H](CO)NC(=O)CCCC[C@@H]2SC[C@@H]3NC(=O)N[C@@H]32)CSSC[C@@H](C(N)=O)NC(=O)[C@@H]2CCCN2C(=O)CNC(=O)[C@H](CCC(=O)O)NC(=O)[C@H](CC(=O)O)NC(=O)[C@H](CC(=O)O)NC(=O)CNC(=O)[C@H](CC(C)C)NC(=O)[C@H](Cc2c[nH]cn2)NC(=O)[C@H](CC(C)C)NC(=O)CNC(=O)[C@H](Cc2c[nH]cn2)NC1=O [collagelin] (Biotin-SGSGCGPRVMHGLHLGDDEGPC-NH2; disulfide 5-22),18.3,–,–
B1,–,completely inhibited,completely inhibited
